Entries after “also recorded” stand apart in the source; their conditions may differ.
What was measured:
HEL = experiment: Cytotoxicity assay on HEL erythroleukemic cell line; format: cell-based
Description: Kinetic analysis was performed as above.
DCR-2 and an isotype control mAb were conjugated to a PBD dimer toxin, to assess potential cytotoxicity. The cytotoxicity of DCR-2-PBD and the isotype-PBD were tested against CD300f+ and CD300f− cell lines and the results are shown in FIG. 6 and Table 2.

primary AML cells = experiment: Primary AML xenograft in NSG mice; format: in vivo, mouse; settings: single dose 300 ug/kg
Description: For primary AML xenografts, NSG mice were irradiated with 150cGy 24 hours before 8×10^6 AML cells from CRGH11 (sample 10 Table S1) were injected iv. Once engraftment was established (>1% human CD45 positive events in PB), mice were given DCR-2-PBD or isotype-PBD. Mice were euthanised 6 days later and the BM was harvested for enumeration and surface marker analysis by flow cytometry.

[1] = tested on: HSPC colony forming units; experiment: Colony forming unit toxicity assay, cord blood HSPC; format: cell-based, human
Description: CFU colonies were plated at 2×10^4 cells/well in semi-solid methylcellulose medium (MethoCult Classic, Stemcell Technologies) in a 24 well plate (Corning, N.Y., USA), were cultured at 37° C. in 5% CO2 for 14 days and counted via microscopy. Whole cord blood PBMC was used. CD34^+ progenitors were continuously exposed to multiple concentrations of DCR-2 with equal concentrations of a secondary goat anti mouse antibody conjugated to PBD dimer. As a control, only the secondary PBD dimer conjugated antibody was used as above.
(§1) CB cells, plated at 2×10^4 cells/well in semi-solid methylcellulose medium (MethoCult Classic, Stemcell Technologies) in a 24 well plate (Corning, N.Y., USA), were cultured at 37° C. in 5% CO2 for 14 days when colony forming units (CFU) were scored. DCR-2-PBD or isotype-PBD was added to each well for continuous exposure. Three CB samples were tested with duplicate wells performed in each experiment.

T cells = experiment: Mixed leucocyte reaction; format: cell-based, human; settings: 200 pmol, 24 hours pre-incubation of stimulators, day 5
Description: DCR-2PBD's impact on antigen presentation was assessed by incubating DCR-2PBD or isotope-PBD with whole PBMC for 24 hours then washing, afterwards adding allogenic CFSE labeled T cells (naive CD4, magnetically separated) and measuring T cell division via reduction in CFSE expression. In more detail, T cells were depleted from PBMC by magnetic selection using an AutoMACS Pro with anti-CD3 mAb (HIT3a, Biolegend) with greater than 90% depletion in all samples. The CD3-depleted PBMC were incubated in complete RPMI media with DCR-2-PBD (200 pmol), isotype-PBD (200 pmol) or PBS for 24 hours. After washing to remove unbound ADC, the CD3-depleted PBMC were used to stimulate allogeneic CFSE labelled naive CD4+ T cells which had been prepared using a RosetteSep Kit (Stem Cell Technologies 17555). On day 5 the proliferation of T cells, identified using anti-CD3 AF700 (SP34-2), was assessed by CFSE reduction using flow cytometry. The results of the DCR-2-PBD and isotype-PBD groups were normalised to the PBS control group. […]
T cells were depleted from PBMC by magnetic selection using an AutoMACS Pro with anti-CD3 mAb (HIT3a, Biolegend) with greater than 90% depletion in all samples. […] On day 5 the proliferation of T cells, identified using anti-CD3 AF700 (SP34-2), was assessed by CFSE reduction using flow cytometry. […]

primary AML = experiment: Colony forming unit assay, primary AML samples; format: cell-based, human
Description: as §1
Two primary AML samples were tested: CRGH1 with low CD300f expression (MFI ratio of 2.6) and CRGH9 with a high CD300f expression (MFI 109.9) (FIG. 9).

B1: DCR-2PBD: anti-CD300f mAb DCR-2 conjugated to pyrrolobenzodiazepine dimer via Cathepsin B-cleavable linker MA-PEG4-VA-PBD; drug to antibody ratio 3.3 (conjugate)
VH: MESGGGLVQPGGPLKLSCAASGFGFSGSWMSWVRQAPGKGLEWIGQINPDSSTINYTPSLKDKFIISRDNAKNTLYLQINKVRSEDTALYYCARRGFFEGYSAWFAYW
VL: ILMTQTPKFLLVSAGDRVTITCKASQSVSNDVAWYQQKPGQSPSLLIYYASNRNTGVPDRFTGSGYETDFTFTISTVQAEDLAVYFCQQDYTSPWTFGGG
HEL
  IC50: 0.544 nM
Primary AML cells
  AML cells as mean percentage of total cells in BM: 12.32%
  human AML cells in BM, mean total enumeration: 0.37×10^6
[1]; 7.84 pM (p=0.0033)
  reduction in total CFUs: Significant reductions
[1]; 32.9 pM
  inhibition of all major CFU subtypes: inhibited
[1]; 39.21 pM (p<0.0001)
  reduction in total CFUs: Significant reductions
[1]; 196.1 pM
  inhibition of all major CFU subtypes: inhibited
[1]; 196.1 pM (p<0.0001)
  reduction in total CFUs: Significant reductions
T cells
  T cell proliferation in mixed lymphocyte reaction: no impact; also recorded: does not reduce T cell proliferation
Primary AML; CRGH1 (low CD300f expression), 196.1 pM
  toxicity against primary AML CFU: Significant toxicity
Primary AML; CRGH9 (high CD300f expression), all dose levels (P<0.001)
  toxicity against primary AML CFU: Significant toxicity

From patent US20220296727A1, “Immunoconjugate” (DendroCyte BioTech Pty Ltd, priority 2019, published 2022)
